Assay results as given in publication PMC7782793, “Hydroxamic acid-modified peptide microarrays for profiling isozyme-selective interactions and inhibition of histone deacetylases” (Nature Communications, 2021).
Starred links: 1 amine or outer side, 2 acyl side, 3 side chain; linkers in the order of their positions; H or OH if unused. Non-standard residues stand in square brackets, D forms with d. Primed or numbered codes have the meaning given here. No end group written: not given here. Asuha″ = L-2-amino-8-(hydroxyamino)-8-oxooctanoic acid, O=C(CCCCC[C@H](N[*:1])C(=O)[*:2])NO; Asuha = 2-aminosuberic acid hydroxamate, O=C(CCCCC[C@H](N[*:1])C(=O)[*:2])NO[*:3]

What was measured:
Experiment in all cases: Recombinant HDAC µSPOT microarray binding assay;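 as to Bottom (Value): relative spot intensity from the six enzyme-concentration slides imaged together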;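 as to Bottom (dose-response curve fit): peptide spots on cellulose slides incubated with rising HDAC enzyme concentrations, imaged together, four-parameter logistic fit, EC50 is enzyme concentration giving half-maximal binding signal, two experiments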;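 as to Bottom (dose-response fit): slides with spotted peptides incubated with six HDAC concentrations in HEPES buffer pH 7.4, spot intensities fitted by four-parameter logistic, EC50 as enzyme concentration giving half-maximal binding signal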;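 as to LogEC50 (M): peptide spots on cellulose slides incubated with rising HDAC enzyme concentrations, imaged together, four-parameter logistic fit, EC50 is enzyme concentration giving half-maximal binding signal, two experiments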;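 as to Top (Value): relative spot intensity from the six enzyme-concentration slides imaged together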;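 as to Top (dose-response curve fit): peptide spots on cellulose slides incubated with rising HDAC enzyme concentrations, imaged together, four-parameter logistic fit, EC50 is enzyme concentration giving half-maximal binding signal, two experiments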;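 as to Top (dose-response fit): slides with spotted peptides incubated with six HDAC concentrations in HEPES buffer pH 7.4, spot intensities fitted by four-parameter logistic, EC50 as enzyme concentration giving half-maximal binding signal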
HDAC2 = target: T1, HDAC2 (Homo sapiens, UniProt Q92769); conditions: for Bottom (Value) / Top (Value) / HillSlope (Value): HDAC2 microarray dose-response curve fit, X = Asuha, sheet Fig. 3 HDAC2; for Bottom (Value): bottom plateau; for Top (Value): top plateau; for Bottom / HillSlope / Top: dose-response fit parameter, µSPOT microarray, H4 K12X (X = Asuha) peptides, HDAC2;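 as to Bottom (Value): relative spot intensity from the six enzyme-concentration slides imaged together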;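 as to Top (Value): relative spot intensity from the six enzyme-concentration slides imaged together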;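 as to all read-outs here: Cellulose-bound peptide spots on slides incubated with six HDAC enzyme concentrations, binding intensity read, four-parameter variable-slope fit, EC50 is enzyme concentration giving half-maximal binding, in HEPES buffer pH 7.4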
T1 construct: HDAC2 (full length, C-terminal His tag, BPS Bioscience, cat. #: 50002); purchased BPS Bioscience 50002
Protocol: Experiments were performed twice, data were obtained with Array Analyze software (Active Motif), and data analysis and representation were performed with the GraphPad Prism 7 software. Outliers were curated manually and data were fitted to nonlinear regression [log(agonist) vs. response—variable slope (four parameters)]. […] Non-sigmoidal curves were denoted as not determined (N.D.) The pEC50 values were determined as the concentration of HDAC enzyme required for half-maximal binding signal.

HDAC8 = target: T2, HDAC8 (Homo sapiens, UniProt Q9BY41); conditions: for HillSlope (Value): Hill slope of the µSPOT microarray dose-response fit; for HillSlope (Value) / Bottom (Value) / Top (Value): X = Asuha peptides; for Bottom (Value): fitted bottom of the µSPOT microarray dose-response curve; for Top (Value): fitted top of the µSPOT microarray dose-response curve;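 as to all read-outs here: peptide µSPOT slides incubated with varying HDAC enzyme concentrations, imaged signal intensity fitted by four-parameter variable-slope regression, EC50 is enzyme concentration giving half-maximal binding, pH 7.4 HEPES buffer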
T2 construct: HDAC8 (full length, C-terminal His tag, BPS Bioscience, cat. #: 50008); purchased BPS Bioscience 50008
T2 sequence (Q9BY41 1-377): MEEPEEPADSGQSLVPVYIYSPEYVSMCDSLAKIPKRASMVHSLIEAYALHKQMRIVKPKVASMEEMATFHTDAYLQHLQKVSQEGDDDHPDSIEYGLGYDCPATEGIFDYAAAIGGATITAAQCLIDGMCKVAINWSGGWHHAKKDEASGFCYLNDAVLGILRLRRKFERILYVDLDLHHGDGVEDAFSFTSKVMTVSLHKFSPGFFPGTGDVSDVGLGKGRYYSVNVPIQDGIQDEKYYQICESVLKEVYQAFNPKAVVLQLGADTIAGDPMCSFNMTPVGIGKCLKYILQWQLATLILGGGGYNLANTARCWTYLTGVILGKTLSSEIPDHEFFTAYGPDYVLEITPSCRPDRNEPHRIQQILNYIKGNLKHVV

HDAC3/NCoR2 = target: T3, HDAC3/NCoR2 (Homo sapiens, UniProt O15379); conditions: for Bottom (dose-response curve fit): fitted bottom plateau of binding signal; for Top (dose-response curve fit): fitted top plateau of binding signal; for LogEC50 (M): log of EC50 in M, dose-response fit;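 as to all read-outs here: peptide spots on cellulose slides incubated with rising HDAC enzyme concentrations, imaged together, four-parameter logistic fit, EC50 is enzyme concentration giving half-maximal binding signal, two experiments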
T3 construct: HDAC3/NCoR2 (full length, C-terminal His tag, NCoR2 N-terminal GST tag); purchased BPS Bioscience 50003

HDAC1 = target: T4, HDAC1 (Homo sapiens, UniProt Q13547); conditions: µSPOT microarray; for Bottom (dose-response fit): fitted bottom plateau of the binding curve; for Top (dose-response fit): fitted top plateau of the binding curve;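 as to all read-outs here: slides with spotted peptides incubated with six HDAC concentrations in HEPES buffer pH 7.4, spot intensities fitted by four-parameter logistic, EC50 as enzyme concentration giving half-maximal binding signal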
T4 construct: HDAC1 (full length, C-terminal His tag, C-terminal FLAG tag, BPS Bioscience, cat. #: 50051); FLAG (C); purchased BPS Bioscience 50051

[1] = HDAC8 µSPOT microarray dose-response fit, Bottom Value, X = Asuha, sheet Fig. 3 HDAC8
[2] = HDAC8 µSPOT microarray dose-response fit, HillSlope Value, X = Asuha, sheet Fig. 3 HDAC8
[3] = HDAC8 µSPOT microarray dose-response fit, Top Value, X = Asuha, sheet Fig. 3 HDAC8
[4] = HDAC3 µSPOT microarray, Fig. 3, Hill slope of dose-response fit, X = Asuha
[5] = HDAC3 µSPOT microarray, Fig. 3, X = Asuha
[6] = recombinant HDAC1, Fig. 3, X = Asuha, Hill slope of the binding curve
[7] = recombinant HDAC1, Fig. 3, X = Asuha
[8] = dose-response fit parameter, µSPOT microarray, H4 K12X (X = Asuha) peptides, HDAC8
[9] = dose-response fit parameter, µSPOT microarray, H4 K12X (X = Asuha) peptides, HDAC3
[10] = µSPOT microarray, H4 K12X (X = Asuha) peptides, HDAC3
[11] = dose-response fit parameter, H4 K12X (X = Asuha) peptides, HDAC1

T3 sequence (O15379 whole entry): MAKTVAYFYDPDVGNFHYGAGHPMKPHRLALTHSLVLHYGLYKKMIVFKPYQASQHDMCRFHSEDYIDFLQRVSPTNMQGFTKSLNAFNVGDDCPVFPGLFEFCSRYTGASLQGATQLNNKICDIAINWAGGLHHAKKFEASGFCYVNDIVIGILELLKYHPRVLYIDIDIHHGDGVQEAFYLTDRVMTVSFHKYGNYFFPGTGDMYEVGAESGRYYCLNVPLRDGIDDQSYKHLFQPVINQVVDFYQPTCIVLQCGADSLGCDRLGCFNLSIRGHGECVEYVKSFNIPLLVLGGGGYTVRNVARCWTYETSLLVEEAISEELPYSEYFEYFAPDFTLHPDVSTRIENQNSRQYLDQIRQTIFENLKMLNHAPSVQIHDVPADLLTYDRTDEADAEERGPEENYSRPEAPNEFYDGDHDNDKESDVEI
T3 sequence (Q9Y618 389-480 partner limits assumed): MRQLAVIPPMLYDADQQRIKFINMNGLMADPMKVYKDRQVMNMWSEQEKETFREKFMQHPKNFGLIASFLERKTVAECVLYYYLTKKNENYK
T1 sequence (Q92769 whole entry): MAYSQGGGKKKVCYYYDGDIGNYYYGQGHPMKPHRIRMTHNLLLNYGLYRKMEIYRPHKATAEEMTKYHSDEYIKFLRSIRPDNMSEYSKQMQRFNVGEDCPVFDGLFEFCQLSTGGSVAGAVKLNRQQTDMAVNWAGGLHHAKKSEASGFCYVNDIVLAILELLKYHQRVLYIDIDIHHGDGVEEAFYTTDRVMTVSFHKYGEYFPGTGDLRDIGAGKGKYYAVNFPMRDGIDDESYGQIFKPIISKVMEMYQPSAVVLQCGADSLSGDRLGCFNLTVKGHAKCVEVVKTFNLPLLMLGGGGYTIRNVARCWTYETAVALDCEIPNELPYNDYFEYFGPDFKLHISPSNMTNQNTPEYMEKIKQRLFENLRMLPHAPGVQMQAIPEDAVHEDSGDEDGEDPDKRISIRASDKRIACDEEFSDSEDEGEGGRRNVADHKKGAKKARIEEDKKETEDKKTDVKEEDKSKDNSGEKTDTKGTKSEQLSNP
T4 sequence (Q13547 whole entry): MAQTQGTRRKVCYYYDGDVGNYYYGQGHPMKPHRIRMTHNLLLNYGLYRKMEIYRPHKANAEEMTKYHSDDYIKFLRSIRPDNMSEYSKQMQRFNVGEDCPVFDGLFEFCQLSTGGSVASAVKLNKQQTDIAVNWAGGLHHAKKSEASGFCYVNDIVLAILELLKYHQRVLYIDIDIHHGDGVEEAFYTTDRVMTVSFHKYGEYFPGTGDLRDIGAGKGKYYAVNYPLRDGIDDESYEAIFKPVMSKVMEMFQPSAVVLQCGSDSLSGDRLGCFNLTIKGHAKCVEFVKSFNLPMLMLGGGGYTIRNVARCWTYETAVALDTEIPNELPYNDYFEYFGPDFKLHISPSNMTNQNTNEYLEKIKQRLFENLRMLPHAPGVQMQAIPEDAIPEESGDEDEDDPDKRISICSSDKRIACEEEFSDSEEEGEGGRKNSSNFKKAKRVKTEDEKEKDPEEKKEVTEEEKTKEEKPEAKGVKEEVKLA

Substance | Bottom (Value) (HDAC2) | Top (Value) (HDAC2) | HillSlope (Value) (HDAC2) | Bottom (HDAC8; [1]) | HillSlope (HDAC8; [2]) | Top (HDAC8; [3]) | HillSlope (HDAC3/NCoR2; [4]) | Bottom (dose-response curve fit) (HDAC3/NCoR2; [5]) | Top (dose-response curve fit) (HDAC3/NCoR2; [5]) | HillSlope (HDAC1; [6]) | Bottom (dose-response fit) (HDAC1; [7]) | Top (dose-response fit) (HDAC1; [7]) | Bottom (HDAC2) | HillSlope (HDAC2) | Top (HDAC2) | Bottom (HDAC3/NCoR2; [9]) | HillSlope (HDAC3/NCoR2; [9]) | Top (HDAC3/NCoR2; [9]) | Bottom (HDAC1; [11]) | HillSlope (HDAC1; [11]) | other results
H2B 61-76 (IMNSFVNDIFERIAGE; UniProt P62807 62-77, looked up, fragment) | 0.02 | 0.12 | 1.69 | -0.5 | 0.02 | 0.56 | 1.99 | 0.01 | 0.17 | 1.29 | 0.03 | 1.15 |  |  |  |  |  |  |  |  | 
H2B 64-79 (SFVNDIFERIAGEASR; UniProt P62807 65-80, looked up, fragment) | 0.01 | 12.73 | 0.33 | 0.02 | 0.72 | 1.17 | 1.87 | 0.01 | 0.22 | 1.09 | 0.03 | 1.21 |  |  |  |  |  |  |  |  | 
H2B 67-82 (NDIFERIAGEASRLAH; UniProt P06899 68-83, looked up, fragment) | 0.02 | 6.33 | 0.44 | 0.03 | 0.69 | 4.21 | 1.68 | 0.01 | 0.39 | 1.51 | 0.04 | 1.04 |  |  |  |  |  |  |  |  | 
H2B 91-106 (SREIQTAVRLLLPGEL; UniProt P62807 92-107, looked up, fragment) | 0.03 | 44.03 | 0.48 | 0.04 | 6.48 | 0.09 | 1.45 | 0.01 | 0.55 | 1.35 | 0.04 | 1.07 |  |  |  |  |  |  |  |  | 
P10 (KGLG[Asuha]GGAK) |  |  |  |  |  |  |  |  |  |  |  |  | 0.03 | 1.44 | 0.39 | 0.06 | 4.03 | 0.95 | 0.02 | 0.6 | Bottom (HDAC8; [8]): 0.03; HillSlope (HDAC8; [8]): 10.49; Top (HDAC8; [8]): 0.13; LogEC50 (M) (HDAC3/NCoR2; [10]): -8.87 M; Top (HDAC1; [11]): 1.69
P12 (KGLGXGGA; K12 replaced by Asuha (X)) |  |  |  |  |  |  |  |  |  |  |  |  | 0.02 | 7.89 | 0.14 | 0.04 | 2.48 | 0.98 | 0.01 | 0.67 | HillSlope (Value) (HDAC8): 1.3; Bottom (Value) (HDAC8): 0.02; Top (Value) (HDAC8): 0.58; LogEC50 (M) (HDAC3/NCoR2; [10]): -8.71 M; Top (HDAC1; [11]): 0.47
P13 (GLG[Asuha″]GGA) |  |  |  |  |  |  |  |  |  |  |  |  | 0.01 | 8.37 | 0.04 | -0.01 | 0.48 | 24.94 | 0.02 | 0.73 | HillSlope (Value) (HDAC8): 17.49; Bottom (Value) (HDAC8): 0.01; Top (Value) (HDAC8): 0.03; Top (HDAC1; [11]): 0.36
